Where two headings read alike, the source gives them in different places.
T1: C. elegans cysteine proteinase gcp-1, expressed and purified from E. coli (Caenorhabditis elegans, UniProt P25807 85-329, limits assumed)
T1 construct: also called gcp-I; glp-1
T1 sequence (looked up): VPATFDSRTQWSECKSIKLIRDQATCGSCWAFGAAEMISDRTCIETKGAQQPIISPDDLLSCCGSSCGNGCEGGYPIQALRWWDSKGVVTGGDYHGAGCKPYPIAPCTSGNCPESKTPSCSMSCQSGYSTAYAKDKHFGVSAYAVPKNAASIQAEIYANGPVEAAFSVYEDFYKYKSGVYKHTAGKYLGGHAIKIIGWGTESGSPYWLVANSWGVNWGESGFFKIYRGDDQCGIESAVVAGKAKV

T2: papain (UniProt P00784 134-345)
T2 sequence (looked up): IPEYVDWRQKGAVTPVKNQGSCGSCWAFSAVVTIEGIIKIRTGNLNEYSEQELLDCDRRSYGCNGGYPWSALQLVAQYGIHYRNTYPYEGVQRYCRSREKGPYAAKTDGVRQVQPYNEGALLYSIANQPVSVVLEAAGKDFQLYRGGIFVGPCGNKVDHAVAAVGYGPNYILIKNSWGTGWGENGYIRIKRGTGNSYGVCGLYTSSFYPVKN

B1: Oc-IdeltaD86 (Oryzacystatin I with aspartic acid 86 deleted) (other)
chain: HHHHHHMSSDGGPVLGGVEPVGNENDLHLVDLARFAVTEHNKKANSLLEFEKLVSVKQQVVAGTLYYFTIEVKEGDAKKLYEAKVWEKPWMFKELQEFKPVDASANA
B2: Oc-I with deletion of residue M85 (other)
chain: HHHHHHMSSDGGPVLGGVEPVGNENDLHLVDLARFAVTEHNKKANSLLEFEKLVSVKQQVVAGTLYYFTIEVKEGDAKKLYEAKVWEKPWDFKELQEFKPVDASANA
B3: Oryzacystatin I (Oc-I), wild type, expressed from pQE30 in E. coli (other, Oryza sativa L. japonica)
chain: HHHHHHMSSDGGPVLGGVEPVGNENDLHLVDLARFAVTEHNKKANSLLEFEKLVSVKQQVVAGTLYYFTIEVKEGDAKKLYEAKVWEKPWMDFKELQEFKPVDASANA
notes: the present UniProt entry may carry a longer N-terminus, so the numbering must be checked; also called Oryzacystatin Oc-I; native Oc-I

Experiments:
[1] = target: corresponding proteinases (proteinase of the comparative inhibition assay, not named); assay: cell-based or functional assay
[2] = target: T1, C. elegans cysteine proteinase gcp-1, …; assay: proteinase inhibition assay, Ki
papain [3] = target: T2, papain; assay: proteinase inhibition assay, Ki
[4] = target: T1, C. elegans cysteine proteinase gcp-1, …; assay: proteinase inhibition assay (Barrett), Ki calculated as by Abe et al.
Experimental: (§1) To determine the Ki of cystatins biochemical assays were performed according to the procedure of Barrett (7) and Ki values were calculated as described by Abe et al. (3)

papain [5] = target: T2, papain; assay: as above
Experimental: as §1

[6] = target: corresponding proteinases (proteinase of the comparative inhibition assay, not named); assay: cell-based or functional assay; remark: listed apart in the source

Molecule	relative percentage inhibition [1] [%]	fold lowering of Ki against wild type Oc-I [2] [fold]	fold lowering of Ki against wild type Oc-I (papain [3]) [fold]	Ki [4] [nM]	Ki (papain [5]) [nM]	relative percentage inhibition [6] [%]
OC-NTERM1-15QVLSG40-63CTERM97-116 (hybrid of Oc-I with three CEWC regions) (from UniProt P09229 56-77; P09229 102-123)	90	–	–	–	–	–
Chicken egg white cystatin (CEWC) (from UniProt P01038 24-139)	100	–	–	–	–	–
B1	88	~13	~13	0.6	0.5	–
B2	–	–	–	7.1	–	–
B3	–	–	–	8	7	60

Source: patent US6680424 (UNIVERSITY OF LEEDS, dated 2004)
